Consider three molecules from paper PMC10899662, “TopBP1 utilises a bipartite GINS binding mode to support genome replication” (Nature Communications, 2024).

Where a chain is given by its changes, count along the chain named.

The subject of test [1] is DNA replication in Xenopus egg extracts. As to the kind of experiment: Replication assay in TopBP1-immunodepleted Xenopus egg extract (α-32P-dCTP incorporation). Conditions: for ability to support replication (words): 6 ng/µl recombinant TopBP1 added to TopBP1-immunodepleted extract, 23 °C. Format: biochemical, Xenopus laevis. How it is done: Fig. 5 Both GINS binding surfaces in TopBP1 cooperate in supporting genome replication. a Immobilized recombinant Flag-GINS or Flag peptide-coupled beads were used to pulldown the indicated recombinant TopBP1-BRCT0-5-strep versions (Figs. 1a and 3a) using 100 mM NaAc in the binding buffer. The pulldown was analysed by immunoblotting. […] Estimations were done for the binding interfaces involving TopBP1-GINI (blue) and TopBP1-BRCT4 (red), both together and alone. c Coomassie-stained SDS PAGE gel of the indicated recombinant TopBP1-BRCT0-5 proteins (Figs. 1a(ii) and 3a). d The indicated relative amounts (100%–10%) of immunodepleted and non-depleted Xenopus egg extracts (Xtract) were analysed by immunoblotting using anti-TopBP1 #2 and other indicated antibodies. TopBP1 antibodies #1 and #2, or unspecific IgG (mock) were used for immunodepletions. Ponc, ponceau staining. Error bars, SEM, n = 3. The experiments were done more than three times (i) or twice (ii) with similar results. e, f Replication analyses (radioactive nucleotide incorporation) using Xenopus egg extracts immunodepleted with antibodies anti-TopBP1#1, #2 or unspecific IgG (mock). Buffer (buf), recombinant wild-type (WT) or mutant TopBP1-BRCT0-5-strep (c) were added. Diamonds, Individual data points of n = 3 independent experiments, Error bars, SEM. Source data are provided as a Source data file.
Xenopus laevis egg extracts were prepared from metaphase II arrested eggs as described in ref. [79]. After washing with MMR (100 mM NaCl, 2 mM KCl, 1 mM MgCl2, 2 mM CaCl2, 0.1 mM EDTA, 5 mM HEPES–NaOH, pH 7.8) eggs were dejellied (2% cysteine w:v in H2O, pH 7.8 with NaOH). Eggs were rinsed in XBE2 (100 mM KCl, 2 mM MgCl2, 0.1 mM CaCl2, 1.71% w:v sucrose, 5 mM K-EGTA, 10 mM HEPES–KOH, pH 7.7). Then, the eggs were transferred into centrifuge tubes containing 1 ml XBE2 + 10 µg/ml protease inhibitor (aprotinin Sigma A6279, leupeptin Merck 108975, pepstatin Carl Roth 2936.1) + 100 µg/ml cytochalasin D (Sigma C8273). For packing, eggs were centrifuged for 1 min at 1400 × g at 16 °C in a swingout rotor. Excess buffer, activated and apoptotic eggs were removed before crushing the eggs at 16,000 × g for 10 min at 16 °C. The extract was collected with a 20 G needle and supplemented with 10 µg/ml cytochalasin D, 10 µg/ml protease inhibitors, 1:80 dilution of energy regenerator (1M phosphocreatine K salt, 600 µg/ml creatine phosphokinase in 10 mM HEPES–KOH pH 7.6) and LFB1/50 (10% w-v sucrose, 50 mM KCl, 2 mM MgCl2, 1 mM EGTA, 2 mM DTT, 20 mM K2HPO4/KH2PO4 pH 8.0, 40 mM HEPES–KOH, pH 8.0) to 15% (v:v). The extract was cleared at 84,000 × g at 4 °C for 20 min in a swingout rotor. The cytoplasmatic layer was collected and supplemented with 2% glycerol v:v. […]

Another test relates to 53BP1. The test can be described thus: Pulldown of endogenous 53BP1 from 293T cell lysates with recombinant TopBP1. The conditions noted are these: pulldown from 293T cell lysates, immunoblotting; 2 h, 4 °C. Format: binding. How it is done:
For pulldown assays from soluble lysates of non-transfected 293T cells, 5 µl streptactin Sepharose HP (Cytiva, 28935599) beads were coupled with 10 µg recombinant TopBP1-1-766-strep-WT or mutants in coupling buffer (20 mM HEPES pH 8.0, 150 mM NaCl, 0.1% (v/v) Tween-20, 0.5 mM TCEP, 2% (v/v) glycerol) for 45 min at 4 °C before washing two times with coupling buffer and then once in cell lysis buffer (20 mM HEPES pH 8.0, 150 mM NaCl, 0.1% (v/v) Tween-20, 0.5 mM TCEP, 2% (v/v) glycerol, protease inhibitor cocktail (Roche Complete protease inhibitor cocktail, 05056489001). Control pulldowns were done with Flag-peptide-coupled beads or, when indicated, using GINS-coupled beads and the non-GINS binding TopBP1-Gcc-B4mut. 293T cells were lysed in ten times pellet volume of cell lysis buffer, and centrifuged at 20,000 × g for 15 min at 4 °C. Soluble lysate from cells equivalent to 50% of a 15 cm tissue culture plate was added to the TopBP1-coupled beads and incubated for 2 h at 4 °C rotating. Beads were washed three times with 5 min incubation in lysis buffer and boiled in 50 µl Laemmli buffer before SDS PAGE.
Supplementary Fig. 6: Experiments to control quality of recombinant protein mutants. a: Recombinant TopBP1 point mutants of the GINI and BRCT4 regions bind 53BP1 phospho-dependently. […] Lysates and pulldowns were analysed by immunoblofng. […]

B1: TopBP1-BRCT0-5-WT: recombinant TopBP1 amino acids 1–766, strep-tagged (protein)
chain: MSRNDKEPFFVKFLKSSDNSKCFFKALESIKEFQSEEYLQIITEEEALKIKENDRSLYICDPFSGVVFDHLKKLGCRIVGPQVVIFCMHHQRCVPRAEHPVYNMVMSDVTISCTSLEKEKREEVHKYVQMMGGRVYRDLNVSVTHLIAGEVGSKKYLVAANLKKPILLPSWIKTLWEKSQEKKITRYTDINMEDFKCPIFLGCIICVTGLCGLDRKEVQQLTVKHGGQYMGQLKMNECTHLIVQEPKGQKYECAKRWNVHCVTTQWFFDSIEKGFCQDESIYKTEPRPEAKTMPNSSTPTSQINTIDSRTLSDVSNISNINASCVSESICNSLNSKLEPTLENLENLDVSAFQAPEDLLDGCRIYLCGFSGRKLDKLRRLINSGGGVRFNQLNEDVTHVIVGDYDDELKQFWNKSAHRPHVVGAKWLLECFSKGYMLSEEPYIHANYQPVEIPVSHKPESKAALLKKKNSSFSKKDFAPSEKHEQADEDLLSQYENGSSTVVEAKTSEARPFNDSTHAEPLNDSTHISLQEENQSSVSHCVPDVSTITEEGLFSQKSFLVLGFSNENESNIANIIKENAGKIMSLLSRTVADYAVVPLLGCEVEATVGEVVTNTWLVTCIDYQTLFDPKSNPLFTPVPVMTGMTPLEDCVISFSQCAGAEKESLTFLANLLGASVQEYFVRKSNAKKGMFASTHLILKERGGSKYEAAKKWNLPAVTIAWLLETARTGKRADESHFLIENSTKEERSLETEITNGINLNSDTAEHP
modifications: left off: Strep, C-terminal, kept
notes: recombinant TopBP1 amino acids 1–766, strep-tagged
Turning to B1, the “ability to support replication (words)” value in test [1] is listed as “effectively rescued replication in depleted extracts”.

B2: TopBP1-B4mut: Val590, Thr606 and Val610 mutated to glutamate, arginine and glutamate (protein)
chain: B1 chain with V590E, T606R, V610E
modifications: left off: Strep, C-terminal, kept
As for B2, the results for the “ability to support replication (words)” value in test [1] and in test [1] (listed as B4mut) were “not detectably compromised in their abilities to support replication” and “do not aﬀect grossly the replica+on-inducing”, respectively. Moreover, the “binding to (phospho-)53BP1” value in the test on 53BP1 was “could still interact with phospho-53BP1”.

B3: TopBP1-Gpp: TopBP1-BRCT0-5, central leucine-leucine motif mutated to two consecutive prolines (protein)
chain: B1 chain with L490P, L491P
modifications: left off: Strep, C-terminal, kept
notes: TopBP1-BRCT0-5, central leucine-leucine motif mutated to two consecutive prolines
On to B3, for which the “reduction in nucleotide incorporation” value in test [1] (120 min time point, TopBP1-immunodepleted Xenopus egg extract, 6 ng/µl protein) is reported as 55%. Further, in the test with 53BP1, the “binding to (phospho-)53BP1” value is on record as “no effect on binding to 53BP1”.
